Drawing on PMC2788528, this text covers fold increase in the mean fluorescence intensity in the FRET channel for one substance.

The target of the assay is CEACAM3 WT-HA-CyPet, tyrosine-phosphorylated (coexpressed with v-Src) (UniProt P40198). Briefly: FRET or BRET; flow cytometric FRET in intact cotransfected 293T cells (with or without v-Src); CyPet and YPet double-positive cells gated; FRET channel excitation 405 nm, emission 525/50 nm; LSR II. A general note: In BRET a luciferase serves as donor, and the signal depends on an acceptor being close.
Sequence of UniProt P40198 (P40198 35-252): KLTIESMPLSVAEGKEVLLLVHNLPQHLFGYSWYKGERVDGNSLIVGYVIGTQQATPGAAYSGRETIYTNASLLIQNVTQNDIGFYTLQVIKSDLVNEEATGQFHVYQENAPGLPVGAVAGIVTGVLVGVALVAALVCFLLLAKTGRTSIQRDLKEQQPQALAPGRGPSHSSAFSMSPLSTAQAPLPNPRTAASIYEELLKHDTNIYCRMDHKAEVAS

“YPet-Hck-SH2 (SH2 domain of human Hck fused to YPet) (from UniProt P08631 144-241) (domain or fragment)” registered a fold increase in the mean fluorescence intensity in the FRET channel of 4 fold.
